Test results as given in article PMC12000397.

How the values were obtained:
[1] = target: FITC-labeled BiP NBD (mouse); experiment: fluorescence polarisation; 50 nM FITC-labeled BiP NBD constructs, Grp94 or Grp94 MD titrated; 25 mM Tris pH 7.5, 50 mM KCl, 1 mM ADP (hexokinase-treated), 1 mM DTT; single-site binding fit
[2] = target: FITC-labeled BiP_(D187A) NBD (mouse); experiment: as above
[3] = target: FITC-labeled BiP_(I191A) NBD (mouse); experiment: as above
[4] = target: Grp94 N91C labeled with Alexa Fluor 555 (donor) and Alexa Fluor 647 (acceptor) (mouse) (UniProt P08113); experiment: other fluorescence titration; bulk FRET of 125 nM donor- and acceptor-labeled Grp94 N91C, BiP NBD titrated, apo conditions; 30 °C, 25 mM Tris pH 7.5, 50 mM KCl, 1 mM BME, 1 mg/mL BSA; single-site fit; apparent
Sequence of Grp94 N91C labeled with Alexa Fluor 555 (donor) and Alexa Fluor 647 (acceptor) (mouse) (P08113 other isoform, or with tags, fused parts or gaps Δ287-328 | N91C | N91C): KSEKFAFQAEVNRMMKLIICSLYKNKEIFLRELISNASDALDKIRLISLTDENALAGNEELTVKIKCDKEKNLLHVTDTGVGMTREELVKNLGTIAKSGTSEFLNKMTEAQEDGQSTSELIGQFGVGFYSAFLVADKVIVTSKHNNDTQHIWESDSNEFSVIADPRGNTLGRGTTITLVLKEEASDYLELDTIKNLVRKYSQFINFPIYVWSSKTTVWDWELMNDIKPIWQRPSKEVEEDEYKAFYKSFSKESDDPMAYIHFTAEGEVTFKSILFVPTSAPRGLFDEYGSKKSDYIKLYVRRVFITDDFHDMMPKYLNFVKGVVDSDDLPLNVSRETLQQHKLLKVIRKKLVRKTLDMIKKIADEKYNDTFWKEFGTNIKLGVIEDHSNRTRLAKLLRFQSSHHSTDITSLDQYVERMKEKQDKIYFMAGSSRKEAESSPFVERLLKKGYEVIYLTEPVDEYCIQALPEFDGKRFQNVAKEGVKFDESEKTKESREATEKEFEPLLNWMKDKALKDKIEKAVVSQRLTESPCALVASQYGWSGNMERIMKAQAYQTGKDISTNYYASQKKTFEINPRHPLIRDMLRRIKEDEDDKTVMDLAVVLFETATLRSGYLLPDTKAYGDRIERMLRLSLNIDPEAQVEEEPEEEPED

Sequence of Grp94 (residues 72-765) with the charged-linker removed (Δ287-328) (P08113 other isoform, or with tags, fused parts or gaps mutant): as the sequence (P08113 other isoform, or with tags, fused parts or gaps Δ287-328 | N91C | N91C) above, with C20N counted along it

Kd [1] [µM]	Kd [2] [µM]	Kd [3] [µM]	Kd [4] [µM]	Substance
1.4	8.2	9		Grp94 (residues 72-765) with the charged-linker removed (Δ287-328) (from UniProt P08113 72-765) (natural protein)
			0.67	BiP NBD (domain or fragment)
